Target: KRAS^G12D mutant
Test: BLI binding kinetics assay, KRAS G12D mutant
Conditions: protein-protein; BLI (Fig. S5)

Kd: 51 µM
B1: GRB10: potential KRAS-interacting protein, UniProt Q13322 (protein, UniProt Q13322 1-594, looked up)
Growth factor receptor-bound …: MALAGCPDSFLHHPYYQDKVEQTPRSQQDPAGPGLPAQSDRLANHQEDDVDLEALVNDMNASLESLYSACSMQSDTVPLLQNGQHARSQPRASGPPRSIQPQVSPRQRVQRSQPVHILAVRRLQEEDQQFRTSSLPAIPNPFPELCGPGSPPVLTPGSLPPSQAAAKQDVKVFSEDGTSKVVEILADMTARDLCQLLVYKSHCVDDNSWTLVEHHPHLGLERCLEDHELVVQVESTMASESKFLFRKNYAKYEFFKNPMNFFPEQMVTWCQQSNGSQTQLLQNFLNSSSCPEIQGFLHVKELGKKSWKKLYVCLRRSGLYCSTKGTSKEPRHLQLLADLEDSNIFSLIAGRKQYNAPTDHGLCIKPNKVRNETKELRLLCAEDEQTRTCWMTAFRLLKYGMLLYQNYRIPQQRKALLSPFSTPVRSVSENSLVAMDFSGQTGRVIENPAEAQSAALEEGHAWRKRSTRMNILGSQSPLHPSTLSTVIHRTQHWFHGRISREESHRIIKQQGLVDGLFLLRDSQSNPKAFVLTLCHHQKIKNFQILPCEDDGQTFFSLDDGNTKFSDLIQLVDFYQLNKGVLPCKLKHHCIRVAL

Reference: article PMC11575137 (BMC Biology, 2024)
